From patent US20040136985A1 (published 2004)
Each block holds one binder with its values, some of them ahead of it.

How the values were obtained:
human plasma fibronectin [1] = target: T1, human plasma fibronectin (human, UniProt P02751-8 32-2296, limits assumed); assay: cell-based or functional assay
human plasma fibronectin [2] = target: T1, human plasma fibronectin; assay: competition ELISA, peptide 6 titrated 0-160 µM against FN binding to immobilized CD9
Protocol: FIG. 2C illustrates the effect of titrations of Peptide 6 (0-160 μM) on FN-CD9 binding was evaluated. […] The ability of CD9-CHO-B2 cells to adhere to FN was compared with Mock-CHOB2 cells. CD9-CHO-B2 cells had increased adhesion to FN in the absence of integrin α5β1 expression when compared to Mock-CHO-B2 cells. […] A scrambled control (peptide 6S) had no significant effect on CD9-CHO-B2 cell adhesion (p>0.005).
All incubation periods for the CD9/FN binding ELISA lasted two hours at RT unless otherwise indicated. Immulon I (Dynatech) microtiter plate wells were coated with CD9 (2 μg/ml), His₆-rCD9 (2 μg/ml), BSA (10 μg/ml), or peptide (10 μM) in Buffer A. After one wash with Buffer B, plates were blocked with Blocking Buffer 1.1% BSA was included in steps from ligand overlay to addition of mAb conjugate to minimize non-specific binding. Titrations of human plasma FN in Buffer B were added to plates either alone, or in the case of competition ELISAs, with 0-160 μM synthetic peptide. Plates were washed three times with ELISA Buffer B, followed by incubation with a 1/1000 dilution of rabbit anti-FN antibody. After two washes with Buffer B and one wash with Buffer C, plates were incubated with 1/500 antirabbit IgG alkaline phosphatase in Buffer C for one hour at RT. After four washes with Buffer C, 1 mg/mlp-nitrophenyl phosphate substrate was added and the absorbance at 405 nm was recorded.

T1 sequence (P02751 other isoform, or with tags, fused parts or gaps limits assumed): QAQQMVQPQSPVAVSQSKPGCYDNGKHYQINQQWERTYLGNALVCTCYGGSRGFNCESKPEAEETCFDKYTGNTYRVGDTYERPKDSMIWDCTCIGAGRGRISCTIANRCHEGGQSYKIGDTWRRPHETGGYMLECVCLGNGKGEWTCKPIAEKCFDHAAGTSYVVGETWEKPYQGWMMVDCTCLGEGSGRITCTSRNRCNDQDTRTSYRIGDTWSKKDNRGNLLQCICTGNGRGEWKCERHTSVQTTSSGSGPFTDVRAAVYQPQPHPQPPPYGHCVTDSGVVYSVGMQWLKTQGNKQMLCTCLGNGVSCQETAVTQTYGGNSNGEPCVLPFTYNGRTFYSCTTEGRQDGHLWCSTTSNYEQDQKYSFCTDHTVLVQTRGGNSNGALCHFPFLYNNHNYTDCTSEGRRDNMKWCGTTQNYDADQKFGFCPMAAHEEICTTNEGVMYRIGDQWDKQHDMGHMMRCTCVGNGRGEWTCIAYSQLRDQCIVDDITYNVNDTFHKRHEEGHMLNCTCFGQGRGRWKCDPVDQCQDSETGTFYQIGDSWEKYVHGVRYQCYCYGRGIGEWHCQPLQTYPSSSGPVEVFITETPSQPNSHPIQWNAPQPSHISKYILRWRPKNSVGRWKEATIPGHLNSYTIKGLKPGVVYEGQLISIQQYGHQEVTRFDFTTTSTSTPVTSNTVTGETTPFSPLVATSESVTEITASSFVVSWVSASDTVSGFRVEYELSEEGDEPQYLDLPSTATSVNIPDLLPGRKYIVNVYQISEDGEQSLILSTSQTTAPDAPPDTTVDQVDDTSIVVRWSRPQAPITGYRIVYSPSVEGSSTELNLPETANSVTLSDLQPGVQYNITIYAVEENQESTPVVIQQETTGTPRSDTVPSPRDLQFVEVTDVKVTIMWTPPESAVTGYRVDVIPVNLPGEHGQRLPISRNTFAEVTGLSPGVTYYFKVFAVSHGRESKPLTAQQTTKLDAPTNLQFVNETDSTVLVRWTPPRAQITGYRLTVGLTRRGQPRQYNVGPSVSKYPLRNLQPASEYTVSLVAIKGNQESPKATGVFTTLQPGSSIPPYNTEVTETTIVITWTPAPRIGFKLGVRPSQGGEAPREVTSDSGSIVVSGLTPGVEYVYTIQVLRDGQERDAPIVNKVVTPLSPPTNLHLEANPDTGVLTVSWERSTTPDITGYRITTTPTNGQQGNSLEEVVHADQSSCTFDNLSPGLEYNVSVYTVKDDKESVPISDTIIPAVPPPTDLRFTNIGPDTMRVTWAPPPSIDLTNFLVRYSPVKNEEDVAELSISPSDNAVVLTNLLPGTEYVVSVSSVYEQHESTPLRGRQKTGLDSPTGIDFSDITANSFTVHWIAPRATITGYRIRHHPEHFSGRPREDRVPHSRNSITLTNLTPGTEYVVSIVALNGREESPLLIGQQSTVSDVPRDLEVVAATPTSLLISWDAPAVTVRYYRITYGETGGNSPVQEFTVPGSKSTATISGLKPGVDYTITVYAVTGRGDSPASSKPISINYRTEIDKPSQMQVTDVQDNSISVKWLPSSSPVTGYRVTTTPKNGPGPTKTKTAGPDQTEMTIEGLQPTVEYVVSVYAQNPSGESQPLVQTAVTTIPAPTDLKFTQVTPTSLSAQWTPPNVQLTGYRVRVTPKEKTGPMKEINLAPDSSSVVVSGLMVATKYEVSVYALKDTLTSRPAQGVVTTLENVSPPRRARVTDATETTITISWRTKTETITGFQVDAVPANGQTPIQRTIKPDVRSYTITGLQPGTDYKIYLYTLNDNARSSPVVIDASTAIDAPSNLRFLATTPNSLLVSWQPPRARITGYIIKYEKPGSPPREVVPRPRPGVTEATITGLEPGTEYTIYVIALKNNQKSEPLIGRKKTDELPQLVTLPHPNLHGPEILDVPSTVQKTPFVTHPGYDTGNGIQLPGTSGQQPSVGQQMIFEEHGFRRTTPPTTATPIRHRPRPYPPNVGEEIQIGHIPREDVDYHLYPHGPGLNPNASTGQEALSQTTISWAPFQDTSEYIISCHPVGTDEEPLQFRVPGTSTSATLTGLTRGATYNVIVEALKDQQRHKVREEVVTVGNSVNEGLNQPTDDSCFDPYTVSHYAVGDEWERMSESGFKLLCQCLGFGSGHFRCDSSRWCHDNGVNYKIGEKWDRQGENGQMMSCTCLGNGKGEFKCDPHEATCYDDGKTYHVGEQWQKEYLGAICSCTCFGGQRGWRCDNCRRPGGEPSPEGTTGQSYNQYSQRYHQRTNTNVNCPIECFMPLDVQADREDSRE

B1: CD9 Δ133-192 (receptor)
chain: MPVKGGTKCIKYLLFGFNFIFWLAGIAVLAIGLWLRFDSQTKSIFEQETNNNNSSFYTGVYILIGAGALMMLVGFLGCCGAVQESQCMLGLFFGFLLVIFAIEIAAAIWGYSHKDEVIKEVQEFYKDTYNKLFHIIGAVGIGIAVVMIFGMIFSMILCCAIRRNREMV
- reduction in haptotactic motility to FN (human plasma fibronectin [1]): 64%

B2: CD9 Δ113-228 (receptor)
chain: MPVKGGTKCIKYLLFGFNFIFWLAGIAVLAIGLWLRFDSQTKSIFEQETNNNNSSFYTGVYILIGAGALMMLVGFLGCCGAVQESQCMLGLFFGFLLVIFAIEIAAAIWGYS
- reduction in haptotactic motility to FN (human plasma fibronectin [1]): 58%

Continued, values first:

- IC50 (read off the curve) (human plasma fibronectin [2]): ~20 µM
B3: peptide 6 (peptide)
peptide: PKKDVLETFTVKSCPDAIKEVFDNK
notes: Synthetic peptide of CD9 EC2

- reduction in haptotactic motility to FN (human plasma fibronectin [1]): 45%
B4: CD9 Δ173-192 (receptor)
chain: MPVKGGTKCIKYLLFGFNFIFWLAGIAVLAIGLWLRFDSQTKSIFEQETNNNNSSFYTGVYILIGAGALMMLVGFLGCCGAVQESQCMLGLFFGFLLVIFAIEIAAAIWGYSHKDEVIKEVQEFYKDTYNKLKTKDEPQRETLKAIHYALNCCGLAGGVEQFISDICPKKDVFHIIGAVGIGIAVVMIFGMIFSMILCCAIRRNREMV
